Columns and labels:
[1] = system: PC-3 prostate cancer cell line; assay: MTT Cell Proliferation assay, PC-3 prostate cancer cell line; type: cell-based; conditions: PC-3, 10 μg, after 8 days of culture, FIG. 19
Method: (§1) Two groups of proliferation studies were carried out for each antibody. One group was used to study the effect on proliferation by the antibody in presence of endogenous adrenomedullin, while the other group was used to the study the effects of antibody in presence of exogenously added adrenomedullin. Varying concentrations of antibody were prepared in PBS to result in final well concentrations of 10 μg, 1 μg, 100 ng, 10 ng, 1 ng, 100 pg, 10 pg and 1 pg. Six replicates of each concentration of each antibody was carried out. This dose range was used in both groups. Adrenomedullin was added to the appropriate group to a final well concentration of 200 nM. 5-FluoroUracil (Fluka) was used as a positive control (100 mM) for the reduction in proliferation. PBS controls were also prepared. The plates were then incubated under standard conditions. Replacement and re-dosing of antibody and controls was carried out every 2 days. Mouse anti-GST antibody concentration responses were also calculated the similar way since it was the antibody control for the experiment
(§2) In order to check for consistency of the cells seeded, a 12-24 hours study was performed. Further time points were carried out at 2, 4, 6 and 8 days. […] The plate was read for absorbance at 595 nm (Spectramax M5e), using the software Softmax™ Pro 5.2.X 100035.

[2] = system: HCT116 colon cancer cell line; assay: MTT Cell Proliferation assay, HCT116 colon cancer cell line; type: cell-based; conditions: HCT116, 10 μg, after 8 days of culture; FIG. 21
Method: as §1, §2

[3] = system: U-87 glioblastoma cancer cell line; assay: Apoptosis assay (caspase-3), U-87 cells; type: cell-based; conditions: U-87, 10 μg; FIG. 22
Method: (§3) The apoptosis assay was carried out using the Caspase-3 Assay kit (Sigma).
U-87 cells were prepared under standard conditions. A cell solution of 2×10^7 cells was made up in 2 ml of media were dispensed into polypropylene tubes.
(§4) 2×10^7 cells wens taken for each treatment. The treatment groups were, antibody treated cells (for each antibody), anti-Fas antibody, antibody and adrenomedullin treated cells, blank and adrenomedullin treated cells. The positive control used was anti-Fas monoclonal antibody (MBL). The final concentration of antibodies used was […] and for anti-Fas antibody was 500 ng.
(§5) The treated cell suspension in 2 ml media were incubated for 3 hours at 37° C. in a 5% CO2 atmosphere.
The assay buffer and lysis buffer given in the kit was prepared using the given 17 megohm water as per the standard instructions given in the protocol. After 3 hours of incubation, the cells were centrifuged at 600 g for 5 minutes at 4° C. The supernatant was discarded and the cells were resuspended in 1 ml PBS. The cells were once again centrifuged using the above mentioned conditions and the supernatant was discarded. The cell pellet was resuspended in 200 μl 1× lysis buffer and incubated on ice for 20 minutes. The lysed cells were centrifuged at 20,000 g for 15 minutes at 4° C. […] The absorbance was read at 405 nm (Spectramax M5e), using the software Softmax™ Pro 5.2.36.

[4] = system: MDA-MB-436-GFP breast cancer cell line; assay: MTT Cell Proliferation assay, MDA-MB-436-GFP breast cancer cell line; type: cell-based; conditions: after 8 days of culture, FIG. 17
Method: as §1, §2

[5] = system: MDA-MB-436-GFP breast cancer cell line; assay: Apoptosis assay (caspase-3), MDA-MB-436-GFP cells; type: cell-based; conditions: 10 μg, FIG. 23
Method: as §3, §4, §5
The assay buffer and lysis buffer given in the kit was prepared using the given 17 megohm water as per the standard instructions given in the protocol. After 3 hours of incubation, the cells were centrifuged at 600 g for 5 minutes at 4° C. The supernatant was discarded and the cells were resuspended in 1 ml PBS. The cells were once again centrifuged using the above mentioned conditions and the supernatant was discarded. The cell pellet was resuspended in 200 μl 1× lysis buffer and incubated on ice for 20 minutes. The lysed cells were centrifuged at 20,000 g for 15 minutes at 4° C. The cell lysine were then laid out in a 96 well flat bottomed plate as shown in FIG. 6 and incubated overnight. The absorbance was read at 405 nm (Spectramax M5e), using the software Softmax™ Pro 5.2.36.

[6] = system: MDA-MB-436-GFP breast cancer cells; assay: MDA-MB-436-GFP xenograft in CD1 nude mice; type: in vivo, CD1 nude (nu/nu) mice; conditions: right flank of CD1 nude mice, 6 weeks
Method: MDA-MB-436-GFP cells were cultured in RPMI media containing penicillin (50 U/ml), streptomycin (50 μg/ml), glutamine (1 mg/ml), and supplemented with 10% fetal bovine serum. Cells were cultured under a humid 5% CO2/95% air atmosphere, and fed with fresh medium every 2 days, being routinely monitored for mycoplasma contamination. Cells growing exponentially were harvested using Trypsin EDAT solution. All culture media components were purchased from Invitrogen Life Technologies
Animal work was performed in the animal facility of the University of Sheffield. Male 4-to-5-week-old CD1 nude (nu/nu) mice were used. Mice were acclimated and housed in sterile cages in groups of four or less under laminar flow hoods in a temperature-controlled room with a 12-hour light/12-hour dark schedule, and fed autoclaved chow and water ad libitum.
CD1 nude (nu/nu) nude mice were implanted with MDA-MB-436-GFP breast cancer cells. For the cell implantations, MDA-MB-436-GFP cells, grown in culture, were washed with PBS, dispersed in a 0.05% solution of trypsin, and resuspended. […] Tumors were measured with a digital venier calliper (Site), and tumour volumes were determined using the formula width×length×height×0.52 (for ellipsoid form), these measurement were taken twice weekly. […]

[7] = system: U-87 glioblastoma cell line; assay: MTT Cell Proliferation assay, U-87 glioblastoma cell line; type: cell-based; conditions: U-87, 10 μg dose, after 8 days of culture; FIG. 14
Method: The cell culture was carried out under aseptic conditions on Nunclon™ treated tissue culture plastics. The U-87 glioblastoma cells (ATCC noHTB-14) used for this project were cultured in standard EMEM (Earle's Minimum Essential Medium) media (Gibco) with 10% Fetal Calf Serum (Gibco) and 5% Penicillin/Streptomycin antibiotic (Sigma). The frozen cells were thawed at 37° C. for 2 minutes. The cells were then immediately transferred to 75 cm2 flask with 10 ml of media. The culture was incubated at 37° C. with 5% CO2 to attain confluency. The media was changed every three days and the cells were then subcultured after reaching 80-90% confluency. […]
The U87 glioblastoma cells were grown under standard conditions (as mentioned above). The total number of cells were counted using a haemocytometer (Hawksley) and the concentration was calculated using the following equation: […]
Two groups of proliferation studies were carried out for each antibody. […] Mouse anti-GST antibody concentration responses were also calculated the similar way since it was the antibody control for the experiment
In order to check for consistency of the cells seeded, a 12-24 hours study was performed. […] The plate was read for absorbance at 595 nm (Spectramax M5e), using the software Softmax™ Pro 5.2.X 100035.
The proliferation/survival of SW-13 and U87 (Glioblastoma cell line) cells was determined using the MTT assay.

B1: JF2: monoclonal anti-RAMP-3 antibody, IgG, IgG1 subtype (antibody, V domains shown)
VH: QVQLVESGGGVVQPGKSLRLSCAASGFTFSSYGMYWVRQAPGKGLEWVAVISYDGSNKYYADSVKGRFTISRDNSKNTLYLQMNSLRAEDTAVYNCAKEMRYGSGRKAIKYYYGMDVWGQGTTVTVSSASTKGPSVFPLA
VL: DIQMTQSPSSLSASLGERVSLTCRASQDIGSNLNWLQQEPDGTIKRLIYATSSLDSGVPKRFSGSRSGSDYSLTISSLESEDFVDYYCLQYASSPPTFGGGTKLEIKRADAAPTVSIFPPSSKLG
**Q.** What does the source list for B1?
**A.** reduction in proliferation ([1]; in the absence of exogenously added adrenomedullin): 22%; reduction in proliferation ([1]; in the presence of adrenomedullin): 37%; reduction in proliferation compared to controls [2]: no statistically significant reduction in proliferation; increase levels of caspase-3 [3]: 26%; reduction in proliferation ([4]; 10 μg (greatest reduction)): 12%; reduction in proliferation compared to controls ([4]; doses 1 μg and 10 μg): significant reduction in proliferation; levels of caspase-3 (apoptosis), significance [5]: only antibody JB3 showed a significant increased; tumour volume ([6]; versus control groups, FIG. 24): rates of growth within the treatment groups are considerably slower; tumour weights ([6]; calculated back using the volumes of tumours, FIG. 25): still remain below control groups; reduction in proliferation [7]: 40%

From patent publication US8389237B2, “Antibodies against RAMP3” (Medella Therapeutics Limited, priority 2007, dated 2013)
